System: Escherichia coli TOP10
Experiment: shrunken log2 fold change of peptide-encoding DNA abundance (4.5 h post-induction vs induction); higher = less antimicrobial activity (less host growth inhibition)
Conditions: time post-induction: 4.5 h; library: site-saturation at positions 5, 18, 19, 20
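Also: peptides expressed intracellularly from a pBAD plasmid library in pooled LB shake-flask culture, induced with 0.3% L-arabinose, DNA abundance read by NGS, three biological replicates, DESeq2 with apeglm shrinkage.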

| Sequence | shrunken log2 fold change |
| --- | --- |
| RRIRSRPPRLPRPRPRPDNIPRP | -0.347 |
| RRIRKRPPRLPRPRPRPTSPPRP | 0.15 |
| RRIRVRPPRLPRPRPRPQLWPRP | 0.0627 |
| RRIRSRPPRLPRPRPRPNKFPRP | -0.36 |
| RRIRFRPPRLPRPRPRPDKFPRP | -0.0567 |
| RRIRDRPPRLPRPRPRPRYWPRP | 0.152 |
| RRIRIRPPRLPRPRPRPVPSPRP | -0.217 |
| RRIRFRPPRLPRPRPRPSFGPRP | -0.112 |
| RRIRYRPPRLPRPRPRPQHHPRP | -0.55 |
| RRIRARPPRLPRPRPRPYMDPRP | -0.0602 |
| RRIRVRPPRLPRPRPRPNKVPRP | -0.271 |
| RRIRGRPPRLPRPRPRPCHCPRP | -0.017 |
| RRIRSRPPRLPRPRPRPGSSPRP | -0.168 |
| RRIRARPPRLPRPRPRPLEPPRP | 0.451 |
| RRIRLRPPRLPRPRPRPYYCPRP | -0.223 |
| RRIRARPPRLPRPRPRPTGTPRP | 0.363 |
| RRIRKRPPRLPRPRPRPIIHPRP | -0.0792 |
| RRIRPRPPRLPRPRPRPNIIPRP | -0.407 |
| RRIRPRPPRLPRPRPRPWCYPRP | -0.143 |
| RRIRCRPPRLPRPRPRPLAMPRP | 0.062 |
| RRIRQRPPRLPRPRPRPISPPRP | -0.0311 |
| RRIRPRPPRLPRPRPRPDIQPRP | -0.222 |
| RRIRPRPPRLPRPRPRPEDSPRP | 0.159 |
| RRIRSRPPRLPRPRPRPCFGPRP | -0.217 |
| RRIRLRPPRLPRPRPRPKSPPRP | 0.0414 |

| Sequence | shrunken log2 fold change |
| --- | --- |
| RRIRLRPPRLPRPRPRPIDFPRP | -0.384 |
| RRIRCRPPRLPRPRPRPCPAPRP | -0.178 |
| RRIRERPPRLPRPRPRPTLWPRP | 0.364 |
| RRIRVRPPRLPRPRPRPKRTPRP | 0.0795 |
| RRIRMRPPRLPRPRPRPNGMPRP | 0.185 |
| RRIRPRPPRLPRPRPRPTNNPRP | -0.329 |
| RRIRRRPPRLPRPRPRPPLIPRP | 0.511 |
| RRIRDRPPRLPRPRPRPVCSPRP | 0.222 |
| RRIRERPPRLPRPRPRPMVHPRP | -0.281 |
| RRIRYRPPRLPRPRPRPVLEPRP | -0.0835 |
| RRIRHRPPRLPRPRPRPEAGPRP | 0.264 |
| RRIRLRPPRLPRPRPRPWTQPRP | 0.13 |
| RRIRVRPPRLPRPRPRPQHLPRP | -0.117 |
| RRIRNRPPRLPRPRPRPMLSPRP | 0.081 |
| RRIRHRPPRLPRPRPRPKVMPRP | 0.0163 |
| RRIRFRPPRLPRPRPRPNWGPRP | 0.0529 |
| RRIRSRPPRLPRPRPRPPIVPRP | -0.0118 |
| RRIRTRPPRLPRPRPRPSGIPRP | -0.0172 |
| RRIRSRPPRLPRPRPRPQNYPRP | -0.322 |
| RRIRARPPRLPRPRPRPLQKPRP | 0.586 |
| RRIRFRPPRLPRPRPRPERGPRP | 0.0525 |
| RRIRARPPRLPRPRPRPAHPPRP | 0.653 |
| RRIRSRPPRLPRPRPRPNEEPRP | 0.0709 |
| RRIRYRPPRLPRPRPRPEMEPRP | -0.0352 |
| RRIRCRPPRLPRPRPRPHDTPRP | -0.427 |

| Sequence | shrunken log2 fold change |
| --- | --- |
| RRIRWRPPRLPRPRPRPSAHPRP | 0.062 |
| RRIRARPPRLPRPRPRPACTPRP | 0.668 |
| RRIRARPPRLPRPRPRPQKPPRP | 0.117 |
| RRIRMRPPRLPRPRPRPEHHPRP | 0.323 |
| RRIRLRPPRLPRPRPRPMYMPRP | -0.295 |
| RRIRVRPPRLPRPRPRPSYEPRP | -0.298 |
| RRIRQRPPRLPRPRPRPMGWPRP | 0.379 |
| RRIRDRPPRLPRPRPRPQFHPRP | -0.438 |
| RRIRSRPPRLPRPRPRPVKVPRP | 0.0828 |
| RRIRRRPPRLPRPRPRPGKKPRP | 0.0542 |
| RRIRRRPPRLPRPRPRPPWLPRP | 0.634 |
| RRIRKRPPRLPRPRPRPEALPRP | 1.67 |
| RRIRRRPPRLPRPRPRPITVPRP | -0.179 |
| RRIRIRPPRLPRPRPRPIQKPRP | 0.00853 |
| RRIRIRPPRLPRPRPRPWMWPRP | 0.0832 |
| RRIRNRPPRLPRPRPRPTVSPRP | -0.268 |
| RRIRMRPPRLPRPRPRPRSDPRP | 0.722 |
| RRIRVRPPRLPRPRPRPIPDPRP | -0.0692 |
| RRIRIRPPRLPRPRPRPDPAPRP | 0.0747 |
| RRIRFRPPRLPRPRPRPIPLPRP | -0.483 |
| RRIRMRPPRLPRPRPRPYYPPRP | -0.159 |
| RRIRTRPPRLPRPRPRPYLTPRP | -0.171 |
| RRIRQRPPRLPRPRPRPMHDPRP | -0.0216 |
| RRIRWRPPRLPRPRPRPGVVPRP | 0.576 |
| RRIRERPPRLPRPRPRPDYTPRP | -1.01 |

| Sequence | shrunken log2 fold change |
| --- | --- |
| RRIRDRPPRLPRPRPRPQPHPRP | 0.228 |
| RRIRWRPPRLPRPRPRPGVGPRP | 1.27 |
| RRIRIRPPRLPRPRPRPAQGPRP | 0.168 |
| RRIRRRPPRLPRPRPRPPQTPRP | 0.828 |
| RRIRKRPPRLPRPRPRPGHEPRP | 0.127 |
| RRIRQRPPRLPRPRPRPKTWPRP | 1.14 |
| RRIRFRPPRLPRPRPRPWWAPRP | -0.377 |
| RRIRERPPRLPRPRPRPYDIPRP | -0.136 |
| RRIRLRPPRLPRPRPRPMQGPRP | -0.0711 |
| RRIRYRPPRLPRPRPRPVKPPRP | 0.00519 |
| RRIRRRPPRLPRPRPRPKDHPRP | 0.0887 |
| RRIRVRPPRLPRPRPRPKQLPRP | 0.0267 |
| RRIRLRPPRLPRPRPRPLGAPRP | 0.387 |
| RRIRARPPRLPRPRPRPDCDPRP | 0.214 |
| RRIRIRPPRLPRPRPRPTDNPRP | -0.964 |
| RRIRIRPPRLPRPRPRPAMPPRP | 0.0692 |
| RRIRIRPPRLPRPRPRPHVKPRP | -0.213 |
| RRIRYRPPRLPRPRPRPQTTPRP | -0.0405 |
| RRIRLRPPRLPRPRPRPVFSPRP | -0.112 |
| RRIRWRPPRLPRPRPRPITHPRP | -0.126 |
| RRIRDRPPRLPRPRPRPCRPPRP | 0.0754 |
| RRIRARPPRLPRPRPRPQMQPRP | 0.508 |
| RRIRPRPPRLPRPRPRPSTKPRP | -0.0696 |
| RRIRFRPPRLPRPRPRPAVNPRP | -0.106 |
| RRIRHRPPRLPRPRPRPHRRPRP | 0.0762 |

| Sequence | shrunken log2 fold change |
| --- | --- |
| RRIRARPPRLPRPRPRPSQSPRP | 0.0538 |
| RRIRNRPPRLPRPRPRPSKAPRP | -0.0014 |
| RRIRHRPPRLPRPRPRPNLFPRP | -0.0861 |
| RRIRDRPPRLPRPRPRPDCAPRP | 1.41 |
| RRIRFRPPRLPRPRPRPVECPRP | -0.17 |
| RRIRQRPPRLPRPRPRPQTMPRP | 0.0333 |
| RRIRPRPPRLPRPRPRPEGWPRP | 1.82 |
| RRIRCRPPRLPRPRPRPNGHPRP | -0.023 |
| RRIRPRPPRLPRPRPRPRNVPRP | 0.0758 |
| RRIRHRPPRLPRPRPRPMAPPRP | 0.0599 |
| RRIRQRPPRLPRPRPRPNFIPRP | -0.402 |
| RRIRDRPPRLPRPRPRPTPLPRP | 0.484 |
| RRIRKRPPRLPRPRPRPVVRPRP | -0.0886 |
| RRIRCRPPRLPRPRPRPQTKPRP | 0.146 |
| RRIRFRPPRLPRPRPRPAKSPRP | -0.135 |
| RRIRIRPPRLPRPRPRPVEIPRP | -0.0212 |
| RRIRYRPPRLPRPRPRPVAWPRP | 0.00214 |
| RRIRTRPPRLPRPRPRPDKNPRP | -0.143 |
| RRIRERPPRLPRPRPRPNNAPRP | -0.162 |
| RRIRLRPPRLPRPRPRPLCHPRP | -0.253 |
| RRIRLRPPRLPRPRPRPRHEPRP | 0.055 |
| RRIRGRPPRLPRPRPRPWHRPRP | 0.0496 |
| RRIRQRPPRLPRPRPRPYCYPRP | -0.198 |
| RRIRMRPPRLPRPRPRPCKKPRP | 0.106 |
| RRIRWRPPRLPRPRPRPDSGPRP | -0.0735 |

| Sequence | shrunken log2 fold change |
| --- | --- |
| RRIRFRPPRLPRPRPRPEMRPRP | 0.244 |
| RRIRRRPPRLPRPRPRPIVDPRP | 0.841 |
| RRIRCRPPRLPRPRPRPWYKPRP | -1.01 |
| RRIRTRPPRLPRPRPRPNAMPRP | 0.0879 |
| RRIRTRPPRLPRPRPRPEKAPRP | 0.00451 |
| RRIRTRPPRLPRPRPRPDYRPRP | 0.0112 |
| RRIRVRPPRLPRPRPRPLMQPRP | -0.0132 |
| RRIRRRPPRLPRPRPRPQMMPRP | -0.232 |
| RRIRGRPPRLPRPRPRPKSQPRP | 0.556 |
| RRIRSRPPRLPRPRPRPEFSPRP | 0.203 |
| RRIRMRPPRLPRPRPRPWQVPRP | -0.0506 |
| RRIRARPPRLPRPRPRPPLYPRP | 0.606 |
| RRIRIRPPRLPRPRPRPGTWPRP | -0.475 |
| RRIRYRPPRLPRPRPRPTRNPRP | -0.404 |
| RRIRIRPPRLPRPRPRPVYKPRP | -0.834 |
| RRIRGRPPRLPRPRPRPPAMPRP | 1.23 |
| RRIRHRPPRLPRPRPRPMNWPRP | -0.209 |
| RRIRERPPRLPRPRPRPAVRPRP | 0.00239 |
| RRIRYRPPRLPRPRPRPYACPRP | 0.00253 |
| RRIRARPPRLPRPRPRPRERPRP | 0.334 |
| RRIRPRPPRLPRPRPRPHQPPRP | -0.129 |
| RRIRLRPPRLPRPRPRPLLMPRP | -0.136 |
| RRIRKRPPRLPRPRPRPKNPPRP | 0.0739 |
| RRIRRRPPRLPRPRPRPCGQPRP | 0.205 |
| RRIRRRPPRLPRPRPRPNLVPRP | -0.023 |

Reference: the supplement of paper PMC9112550, “Optimization of the antimicrobial peptide Bac7 by deep mutational scanning” (BMC Biology, 2022)
